From publication PMC11574045, “A cofactor-induced repressive type of transcription factor condensation can be induced by synthetic peptides to suppress tumorigenesis” (The EMBO Journal, 2024)

B1: ZFAT (protein, UniProt Q9P243 1-1243, looked up)
Zinc finger protein ZFAT: METRAAENTAIFMCKCCNLFSPNQSELLSHVSEKHMEEGVNVDEIIIPLRPLSTPEPPNSSKTGDEFLVMKRKRGRPKGSTKKSSTEEELAENIVSPTEDSPLAPEEGNSLPPSSLECSKCCRKFSNTRQLRKHICIIVLNLGEEEGEAGNESDLELEKKCKEDDREKASKRPRSQKTEKVQKISGKEARQLSGAKKPIISVVLTAHEAIPGATKIVPVEAGPPETGATNSETTSADLVPRRGYQEYAIQQTPYEQPMKSSRLGPTQLKIFTCEYCNKVFKFKHSLQAHLRIHTNEKPYKCPQCSYASAIKANLNVHLRKHTGEKFACDYCSFTCLSKGHLKVHIERVHKKIKQHCRFCKKKYSDVKNLIKHIRDAHDPQDKKVKEALDELCLMTREGKRQLLYDCHICERKFKNELDRDRHMLVHGDKWPFACELCGHGATKYQALELHVRKHPFVYVCAVCRKKFVSSIRLRTHIKEVHGAAQEALVFTSSINQSFCLLEPGGDIQQEALGDQLQLVEEEFALQGVNALKEEACPGDTQLEEGRKEPEAPGEMPAPAVHLASPQAESTALPPCELETTVVSSSDLHSQEVVSDDFLLKNDTSSAEAHAAPEKPPDMQHRSSVQTQGEVITLLLSKAQSAGSDQESHGAQSPLGEGQNMAVLSAGDPDPSRCLRSNPAEASDLLPPVAGGGDTITHQPDSCKAAPEHRSGITAFMKVLNSLQKKQMNTSLCERIRKVYGDLECEYCGKLFWYQVHFDMHVRTHTREHLYYCSQCHYSSITKNCLKRHVIQKHSNILLKCPTDGCDYSTPDKYKLQAHLKVHTALDKRSYSCPVCEKSFSEDRLIKSHIKTNHPEVSMSTISEVLGRRVQLKGLIGKRAMKCPYCDFYFMKNGSDLQRHIWAHEGVKPFKCSLCEYATRSKSNLKAHMNRHSTEKTHLCDMCGKKFKSKGTLKSHKLLHTADGKQFKCTVCDYTAAQKPQLLRHMEQHVSFKPFRCAHCHYSCNISGSLKRHYNRKHPNEEYANVGTGELAAEVLIQQGGLKCPVCSFVYGTKWEFNRHLKNKHGLKVVEIDGDPKWETATEAPEEPSTQYLHITEAEEDVQGTQAAVAALQDLRYTSESGDRLDPTAVNILQQIIELGAETHDATALASVVAMAPGTVTVVKQVTEEEPSSNHTVMIQETVQQASVELAEQHHLVVSSDDVEGIETVTVYTQGGEASEFIVYVQEAMQPVEEQAVEQPAQEL
B2: ZFP296 (protein, UniProt Q8WUU4 1-475, looked up)
Zinc finger protein 296: MSRRKAGSAPRRVEPAPAANPDDEMEMQDLVIELKPEPDAQPQQAPRLGPFSPKEVSSAGRFGGEPHHSPGPMPAGAALLALGPRNPWTLWTPLTPNYPDRQPWTDKHPDLLTCGRCLQTFPLEAITAFMDHKKLGCQLFRGPSRGQGSEREELKALSCLRCGKQFTVAWKLLRHAQWDHGLSIYQTESEAPEAPLLGLAEVAAAVSAVVGPAAEAKSPRASGSGLTRRSPTCPVCKKTLSSFSNLKVHMRSHTGERPYACDQCPYACAQSSKLNRHKKTHRQVPPQSPLMADTSQEQASAAPPEPAVHAAAPTSTLPCSGGEGAGAAATAGVQEPGAPGSGAQAGPGGDTWGAITTEQRTDPANSQKASPKKMPKSGGKSRGPGGSCEFCGKHFTNSSNLTVHRRSHTGERPYTCEFCNYACAQSSKLNRHRRMHGMTPGSTRFECPHCHVPFGLRATLDKHLRQKHPEAAGEA
B3: ZBTB5 (protein, UniProt O15062 1-677, looked up)
Zinc finger and BTB …: MDFPGHFEQIFQQLNYQRLHGQLCDCVIVVGNRHFKAHRSVLAACSTHFRALFSVAEGDQTMNMIQLDSEVVTAEAFAALIDMMYTSTLMLGESNVMDVLLAASHLHLNSVVKACKHYLTTRTLPMSPPSERVQEQSARMQRSFMLQQLGLSIVSSALNSSQNGEEQPAPMSSSMRSNLDQRTPFPMRRLHKRKQSAEERARQRLRPSIDESAISDVTPENGPSGVHSREEFFSPDSLKIVDNPKADGMTDNQEDSAIMFDQSFGTQEDAQVPSQSDNSAGNMAQLSMASRATQVETSFDQEAAPEKSSFQCENPEVGLGEKEHMRVVVKSEPLSSPEPQDEVSDVTSQAEGSESVEVEGVVVSAEKIDLSPESSDRSFSDPQSSTDRVGDIHILEVTNNLEHKSTFSISNFLNKSRGNNFTANQNNDDNIPNTTSDCRLESEAPYLLSPEAGPAGGPSSAPGSHVENPFSEPADSHFVRPMQEVMGLPCVQTSGYQGGEQFGMDFSRSGLGLHSSFSRVMIGSPRGGASNFPYYRRIAPKMPVVTSVRSSQIPENSTSSQLMMNGATSSFENGHPSQPGPPQLTRASADVLSKCKKALSEHNVLVVEGARKYACKICCKTFLTLTDCKKHIRVHTGEKPYACLKCGKRFSQSSHLYKHSKTTCLRWQSSNLPSTLL
B4: ZBTB6 (protein, UniProt Q15916 1-424, looked up)
Zinc finger and BTB …: MAAESDVLHFQFEQQGDVVLQKMNLLRQQNLFCDVSIYINDTEFQGHKVILAACSTFMRDQFLLTQSKHVRITILQSAEVGRKLLLSCYTGALEVKRKELLKYLTAASYLQMVHIVEKCTEALSKYLEIDLSMKNNNQHTDLCQSSDPDVKNEDENSDKDCEIIEISEDSPVNIDFHVKEEESNALQSTVESLTSERKEMKSPELSTVDIGFKDNEICILHVESISTAGVENGQFSQPCTSSKASMYFSETQHSLINSTVESRVAEVPGNQDQGLFCENTEGSYGTVSEIQNLEEGYSLRHQCPRCPRGFLHVENYLRHLKMHKLFLCLQCGKTFTQKKNLNRHIRGHMGIRPFQCTVCLKTFTAKSTLQDHLNIHSGDRPYKCHCCDMDFKHKSALKKHLTSVHGRSSGEKLSRPDLKRQSLL
B5: ZFP144 (protein, UniProt P35227 1-344, looked up)
Polycomb group RING finger …: MHRTTRIKITELNPHLMCALCGGYFIDATTIVECLHSFCKTCIVRYLETNKYCPMCDVQVHKTRPLLSIRSDKTLQDIVYKLVPGLFKDEMKRRRDFYAAYPLTEVPNGSNEDRGEVLEQEKGALSDDEIVSLSIEFYEGARDRDEKKGPLENGDGDKEKTGVRFLRCPAAMTVMHLAKFLRNKMDVPSKYKVEVLYEDEPLKEYYTLMDIAYIYPWRRNGPLPLKYRVQPACKRLTLATVPTPSEGTNTSGASECESVSDKAPSPATLPATSSSLPSPATPSHGSPSSHGPPATHPTSPTPPSTASGATTAANGGSLNCLQTPSSTSRGRKMTVNGAPVPPLT
B6: CALCOCO1 (protein, UniProt Q9P1Z2 1-691, looked up)
Calcium-binding and …: MEESPLSRAPSRGGVNFLNVARTYIPNTKVECHYTLPPGTMPSASDWIGIFKVEAACVRDYHTFVWSSVPESTTDGSPIHTSVQFQASYLPKPGAQLYQFRYVNRQGQVCGQSPPFQFREPRPMDELVTLEEADGGSDILLVVPKATVLQNQLDESQQERNDLMQLKLQLEGQVTELRSRVQELERALATARQEHTELMEQYKGISRSHGEITEERDILSRQQGDHVARILELEDDIQTISEKVLTKEVELDRLRDTVKALTREQEKLLGQLKEVQADKEQSEAELQVAQQENHHLNLDLKEAKSWQEEQSAQAQRLKDKVAQMKDTLGQAQQRVAELEPLKEQLRGAQELAASSQQKATLLGEELASAAAARDRTIAELHRSRLEVAEVNGRLAELGLHLKEEKCQWSKERAGLLQSVEAEKDKILKLSAEILRLEKAVQEERTQNQVFKTELAREKDSSLVQLSESKRELTELRSALRVLQKEKEQLQEEKQELLEYMRKLEARLEKVADEKWNEDATTEDEEAAVGLSCPAALTDSEDESPEDMRLPPYGLCERGDPGSSPAGPREASPLVVISQPAPISPHLSGPAEDSSSDSEAEDEKSVLMAAVQSGGEEANLLLPELGSAFYDMASGFTVGTLSETSTGGPATPTWKECPICKERFPAESDKDALEDHMDGHFFFSTQDPFTFE
B7: C1QBP (protein, UniProt Q07021 74-282, looked up)
Complement component 1 Q …: LHTDGDKAFVDFLSDEIKEERKIQKHKTLPKMSGGWELELNGTEAKLVRKVAGEKITVTFNINNSIPPTFDGEEEPSQGQKVEEQEPELTSTPNFVVEVIKNDDGKKALVLDCHYPEDEVGQEDEAESDIFSIREVSFQSTGESEWKDTNYTLNTDSLDWALYDHLMDFLADRGVDNTFADELVELSTALEHQEYITFLEDLKSFVKSQ
B8: ZDHHC18 (protein, UniProt Q9NUE0 1-388, looked up)
Palmitoyltransferase ZDHHC18: MKDCEYQQISPGAAPLPASPGARRPGPAASPTPGPGPAPPAAPAPPRWSSSGSGSGSGSGSLGRRPRRKWEVFPGRNRFYCGGRLMLAGHGGVFALTLLLILTTTGLFFVFDCPYLARKLTLAIPIIAAILFFFVMSCLLQTSFTDPGILPRATVCEAAALEKQIDNTGSSTYRPPPRTREVLINGQMVKLKYCFTCKMFRPPRTSHCSVCDNCVERFDHHCPWVGNCVGRRNYRFFYAFILSLSFLTAFIFACVVTHLTLRAQGSNFLSTLKETPASVLELVICFFSIWSILGLSGFHTYLVASNLTTNEDIKGSWSSKRGGEASVNPYSHKSIITNCCAVLCGPLPPSLIDRRGFVQSDTVLPSPIRSDEPACRAKPDASMVGGHP
B9: ZEB2 (protein, UniProt O60315 1-1214, looked up)
Zinc finger E-box-binding …: MKQPIMADGPRCKRRKQANPRRKNVVNYDNVVDTGSETDEEDKLHIAEDDGIANPLDQETSPASVPNHESSPHVSQALLPREEEEDEIREGGVEHPWHNNEILQASVDGPEEMKEDYDTMGPEATIQTAINNGTVKNANCTSDFEEYFAKRKLEERDGHAVSIEEYLQRSDTAIIYPEAPEELSRLGTPEANGQEENDLPPGTPDAFAQLLTCPYCDRGYKRLTSLKEHIKYRHEKNEENFSCPLCSYTFAYRTQLERHMVTHKPGTDQHQMLTQGAGNRKFKCTECGKAFKYKHHLKEHLRIHSGEKPYECPNCKKRFSHSGSYSSHISSKKCIGLISVNGRMRNNIKTGSSPNSVSSSPTNSAITQLRNKLENGKPLSMSEQTGLLKIKTEPLDFNDYKVLMATHGFSGTSPFMNGGLGATSPLGVHPSAQSPMQHLGVGMEAPLLGFPTMNSNLSEVQKVLQIVDNTVSRQKMDCKAEEISKLKGYHMKDPCSQPEEQGVTSPNIPPVGLPVVSHNGATKSIIDYTLEKVNEAKACLQSLTTDSRRQISNIKKEKLRTLIDLVTDDKMIENHNISTPFSCQFCKESFPGPIPLHQHERYLCKMNEEIKAVLQPHENIVPNKAGVFVDNKALLLSSVLSEKGMTSPINPYKDHMSVLKAYYAMNMEPNSDELLKISIAVGLPQEFVKEWFEQRKVYQYSNSRSPSLERSSKPLAPNSNPPTKDSLLPRSPVKPMDSITSPSIAELHNSVTNCDPPLRLTKPSHFTNIKPVEKLDHSRSNTPSPLNLSSTSSKNSHSSSYTPNSFSSEELQAEPLDLSLPKQMKEPKSIIATKNKTKASSISLDHNSVSSSSENSDEPLNLTFIKKEFSNSNNLDNKSTNPVFSMNPFSAKPLYTALPPQSAFPPATFMPPVQTSIPGLRPYPGLDQMSFLPHMAYTYPTGAATFADMQQRRKYQRKQGFQGELLDGAQDYMSGLDDMTDSDSCLSRKKIKKTESGMYACDLCDKTFQKSSSLLRHKYEHTGKRPHQCQICKKAFKHKHHLIEHSRLHSGEKPYQCDKCGKRFSHSGSYSQHMNHRYSYCKREAEEREAAEREAREKGHLEPTELLMNRAYLQSITPQGYSDSEERESMPRDGESEKEHEKEGEDGYGKLGRQDGDEEFEEEEEESENKSMDTDPETIRDEEETGDHSMDDSSEDGKMETKSDHEEDNMEDGM

The molecules below were run on HEK293FT cells transfected with TF library (assay: Screening of TF condensates based on fluorescent puncta). Conditions: Figure 1B numerical data; TF library screen, one value per transcriptional factor.
Format: cell-based
In short: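 Cells were seeded onto plasmid/PEI-loaded wells (plasmid 1.6 μg/ml final) and grown 60 h. Medium with or without glucose followed for 12 h. Fixed, permeabilized cells were stained against Flag or GAL4 tags, and condensate puncta were quantified from 50 random fields per well.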

First: B1
Second: B2
The “Z score of condensed fraction” value of the first is lower: -0.7456 for the first, 0.8818 for the second.

First: B3
Second: B4
The “Z score of condensed fraction” value of the first is lower: -0.7904 for the first, -0.2886 for the second.

First: B5
Second: B6
The “Z score of condensed fraction” value of the first is lower: 0.0768 for the first, 0.2225 for the second.

Going from B7 to B8, the “Z score of condensed fraction” value falls from 2.537 to -0.2463.

With B9 the “Z score of condensed fraction” value was -0.2398.
